From patent publication US20230272055A1 (Incyte, published 2023)

B1: anti-mutCALR antibody clone 30 (antibody, human IgG1, lambda, V domains shown)
VH: EVQLVQSGAEVKKPGASVKVSCKVSGYTLTELSMQWVRQAPGKGLEWMGGFDPDDGETMYAEKFQGRLTVTEDTSTDTVYMELRSLTSEDTALYFCATSPGYDFFDYWGQGTLVTVSS
VL: SYVLTQPPSVSVAPGKTATITCGGNNIGTKSVHWYQQKPGQAPVLVVYDDSDRPSGIPERFSGSNSGNTATLTINRVEAGDEADYYCQVWDSSNDLLIFGGGTKLTVLG
notes: human IgG1; group 1
B2: anti-mutCALR antibody clone 11 (antibody, human IgG1, lambda, V domains shown)
VH: EVRLVQSGAEVKKPGASVKVSCKVSGYTLTELSMQWVRQAPGKGLEWMGGFDPDDGETMYAEKFQGRLTVTEDTSTDTVYMELRSLTSEDTALYFCATSPGYDFFDYWGQGTLVTVSS
VL: QSALTQPRSVSGSPGQSVTISCTGTSSDVGGYNYVSWYQQHPGKAPKLMIYDVSKRPSGVPDRFSGSNSGNTATLTINRVEAGDEADYYCQVWDSSNDLLIFGGGTKLTVLG
notes: human IgG1; group 1
B3: anti-mutCALR antibody clone 33 (antibody, human IgG1, lambda, V domains shown)
VH: QVQLVQSGAEVKKPGATVKISCKVSGYSFTDYFIHWVQQAPGKGLAWVGLVDPEDGETIYAEKFQGRVTITADTSTDTAYMELSSLRSEDTAVYYCATPGGILTDPDAFDIWGQGTMVTVSS
VL: QSALTQPRSVSGSPGQSVTISCAGTGSDVGGYNHVSWYQHHPGKAPKLMIYDVNKRPSGVPDRFSGSKSGNTASLTISGLQAEDEADYYCSSYIPSSTRWVFGGGTKLTVLG
notes: human IgG1; group 2
B4: anti-mutCALR antibody clone 34 (antibody, human IgG1, lambda, V domains shown)
VH: QVQLVQSGAEVKKPGATVKISCKVSGYSFTDYFIHWVQQAPGKGLAWVGLVDPEDGETIYAEKFQGRVTITADTSTDTAYMELSSLRSEDTAVYYCATPGGILTDPDAFDIWGQGTMVTVSS
VL: QSALTQPASVSGSPGQSITISCTGTSSDVGGYNYVSWYQQHPGKAPKLMIYEVSNRPSGVSNRFSGSKSGNTASLTISGLQAEDEADYYCSSYTSSSTYVFGTGTKVTVLG
notes: human IgG1; group 2
B5: anti-mutCALR antibody clone 38 (antibody, human IgG1, kappa, V domains shown)
VH: EVQPVQSGAEVKKPGSSVKVSCKASGGTFSSYAISWVRQAPGQGLEWMGLVDPEDGETIYAEKFRGRVTITADTSTDTAYMELSSLRSEDTAVYYCATEESYGPWGQGTLVTVSS
VL: DIQLTQSPSSLSASVGDRVTITCQASQDISNYLNWYQQKPGKAPKLLIYDASNLETGVPSRFSGSGSGTEFTLTISSLQPEDFATYYCQQLNSYPLTFGGGTKLEIKR
notes: human IgG1; group 3
B6: anti-mutCALR antibody clone 39 (antibody, human IgG1, kappa, V domains shown)
VH: EVQLVQSGAEVKKPGSSVKVSCKASGGTFSSYAISWVRQAPGQGLEWMGLVDPEDGETIYAEKFQGRVTITADTSTDTAYMELSSLRSEDTAVYYCATEESYGPWGQGTLVTVSS
VL: DIQLTQSPSSLSASVGDRVTITCQASQDISNYLDWYQQKPGKAPKLLIYDASNLETGVPSRFSGSGSGTEFTLTISSLQPEDFATYYCQQLNSYPLTFGGGTKLEIKR
notes: human IgG1; group 3
B7: anti-mutCALR antibody clone 41 (antibody, human IgG1, lambda, V domains shown)
VH: EVQLVQSGAEVKKPGASVKVSCKVSGYTLTELSMHWVRQAPGKGLEWMGLVDPEDGETIYAQKFQGRVTMTEDTSTDTAYMELSSLRSEDTAVYYCAREEWSGDGDDAFDIWGQGTMVTVSS
VL: QSVLTQPPSVSAAPGQKVTISCSGSSSNIGSYSVSWYQQLPGTAPKLLIYDNNKRPSGIPDRFSGSNSGTSATLGITGLQTGDEADYYCGTWDSSLSAWVFGGGTKLTVLG
notes: human IgG1; group 4
B8: anti-mutCALR antibody clone 40 (antibody, human IgG1, lambda, V domains shown)
VH: EVQLVQSGAEVKKPGASVKVSCKVSGYTLTESSMHWVRQAPGKGLEWMGLVDPEDGETIYAQKFQGRVTMTEDTSTDTAYMELSSLRSEDTAVYYCAREEWSGDGDDAFDIWGQGTMVTVSS
VL: QSVLTQPPSVSAAPGQKVTISCSGSSSNIGSYSVSWYQQLPGTAPKLLIYDNNKRPSGIPDRFSGSNSGTSATLGITGLQTGDEADYYCGTWDSSLSAWVFGGGTKLTVLG
notes: human IgG1; group 4

The binders below were run against MBP protein (UniProt P0AEX9 27-392 = MBP) (assay: SPR (Biacore 8K), antibody captured on anti-human IgG (Fc), MBP injected).
Procedure: Experiment 1: Recombinant MBP-mutCALR Type 1 fusion protein was custom made at Cepter (cepterbiopartners.com). Data for the interaction of antibodies with recombinant MBP-mutCALR Type 1 fusion protein were collected at 25° C. on a Biacore 8K instrument (Cytiva, Marlborough, Mass.), and all reagents were obtained from Cytiva unless otherwise specified. The experiments were conducted using Tris-buffered saline (pH 7.2), 0.005% Surfactant P20, 1 mM CaCl₂) as running buffer. To prepare the capture surfaces, anti-human IgG (Fc) antibodies (Product #29234600) was amine-coupled onto a CM4 chip (Product #BR100534) under standard conditions using an Amine Coupling Kit (Product #BR100050). […] The kinetics parameters were obtained by applying 1:1 binding model to fit the data from multiple-cycle injection experiments using Biacore Insight Evaluation software.
B1: no binding (tested: 250 nM).
B2: no binding (tested: 250 nM).
B3: no binding (tested: 250 nM).
B4: no binding (tested: 250 nM).
B5: no binding (tested: 250 nM).
B6: no binding (tested: 250 nM).
B7: no binding (tested: 250 nM).
B8: no binding (tested: 250 nM).
